# Experiments:
# [1] = biological target: RAGE (endogenous, of NIH3T3 cells) (UniProt Q62151); test: cell-based or functional assay
# NIH3T3 cells [2] = test: NIH3T3 cell survival after apoptotic insults (5-FU, anoikis on polyHEMA); format: cell-based
# Description: Apoptosis was induced in NIH3T3 cells either by prevention of cell adhesion to a solid substrate (anoikis) or by use of 5-flurouracil. To prevent cell adhesion, 6 well plates were covered (3 ml/well) with a solution of polyhydroxyethylmethacrylate (polyHEMA; Sigma-Aldrich) dissolved at 10 mg/ml in ethanol. Plates were kept at 37° C. for 5 days to evaporate solvent completely. Cells were resuspended at 5×10^4 cells/ml and were cultured (1 ml/well) in DMEM medium containing 10% fetal calf serum for different times on polyHEMA coated dishes at 37° C. and 5% CO2. Subsequently, cells were subjected to cell viability studies using MTS or recovered and analyzed for caspase 3 activity.
# S100 proteins = conditions: Okada et al. 2002; cited from earlier work
# NIH3T3 cells [3] = test: Cell growth (MTS) of NIH3T3 cells with exogenously applied purified S100P; format: cell-based
# Description: Cell growth was analyzed by using MTS reagent (Promega, Madison, Wis.) as per manufactures directions. For studies on the effects of S100P expression, vector alone and three different clonal S100P stably transfected cell lines (1000 cells/well) were seeded into 96 well plates and cell growth was studied from 0-120 hrs. For studies on the effects of exogenously applied S100P, purified S100P was added at indicated concentrations for specific times. MTS was added to the wells one hour before taking the photometric reading.
# Full length S100P cDNA was cloned into pTrcHis2 vector (Invitrogen, Carlsbad, Calif.) and transformed into one shot TOP10 competent E.coli. The bacterial culture was incubated at 37° C. to an OD600=0.6, then IPTG (1 mM) was added and the bacteria were cultured for another 3 hrs. His-S100P was purified using Probond resin column as described by the manufacturer (Invitrogen, Carlsbad, Calif.). The fraction was further dialyzed against 10 mM Tris, pH 8.0, containing 01% Triton X 100 overnight at 4° C. using a Slide-A-Lyzer 10K (Pierce, Rockford, Ill.). Dialyzed protein was further concentrated by Centricon centrifugal filter device YM10 (Millipore, Bedford, Mass.). The purified S100P protein was confirmed by western blot and ELISA and used for in vitro experiments.
# Erk 1 & 2 = Erk 1 & 2 phosphorylation in NIH3T3 cells (western blot); format: cell-based
# Description: Western blot analysis was utilized for the detection of S100P, RAGE, as well as activated Erks and caspase 3 by minor modifications of previously published methods. Cell lysates were prepared and separated by SDS polyacrylimide gel electrophoresis and transferred to nitrocellulose. Membranes were blocked by overnight incubation at 4° C. in 5% milk solution. S100P was detected usingmonoclonal antibodies (Transduction Laboratories, San Diego, Calif.) by incubating the membrane overnight at 4° C. in antibody diluted 1:100 in 5% milk solution. RAGE was detected using goat polyclonal antibodies (Santa Cruz, Santa Cruz, Calif.) by incubating the transferred membrane in for one hour at room temperature with antibody diluted 1:100 in 5% milk solution. Caspase 3 activation was estimated by detection of pro-caspase 3 and active caspase 3 fragments using rabbit polyclonal antibodies against full length caspase 3 (Santacruz Biotech, Calif.) by incubating the membrane at 4° C. for overnight with antibody diluted 1:100 in 5% milk solution. Erk activation was estimated by detection of phosphorylated forms of Erk 1 and 2 using phospho-p44/42 MAP kinase (Thr202/Tyr204) antibody (Cell Signaling, Beverly, Mass.) and, as a loading control after striping, a rabbit polyclonal antibody for total Erk 1 & 2 (Santa Cruz, Santa Cruz, Calif.) by incubating the membrane at 4° C. overnight with antibody diluted 1:100 in 5% milk solution. Second antibody anti-mouse, anti-rabbit, or anti-goat IgG+HRP was incubated for one hour at room temperature and the signal was detected by ECL detection system (Amersham) as per manufacturer protocol.
# NF-κB = NF-κB electrophoretic mobility shift assay in NIH3T3 cells; format: cell-based
# Description: Nuclear extracts were prepared and used for electrophoretic mobility shift assays (EMSAs) as previously described (Han et al., Am. J. Physiol. 277:C74 [1999]). For NF-κB DNA binding the reaction was started by addition of 10,000 cpm of the 22-base pair oligonucleotide 5′-AGTTGAGGGGACTTTCCCAGGC-3′ (SEQ ID NO:7) containing the NF-κB consensus sequence that had been labeled with [γ-32P]-ATP (10 mCi/mmol) by T4 polynucleotide kinase. The reaction was allowed to proceed for 30 min at room temperature. For cold competition experiments unlabeled NF-κB oligonucleotide or OCT1 oligonucleotide as a nonspecific competitor (300×) were added to the binding reaction 5 min before the addition of the radiolabeled probe. For antibody supershift assays 2 μl of specific antibodies to NF-κB protein subunits p65, p50, and c-Rel were incubated with nuclear extracts for 1 hour at room temperature prior to the addition of labeled probe. All reaction mixtures were subjected to PAGE on 4.5% gel in 0.5×TBE buffer at 200 V. Gels were dried and directly exposed to the membranes were exposed to a B-1 phosphoimaging screen and visualized by the use of GS-250 Molecular Imaging System (Bio-Rad Laboratories, Richmond, Calif.).
# RAGE = biological target: T1, RAGE (Mus musculus, UniProt Q62151); test: Co-immunoprecipitation (pull-down) of S100P with RAGE from NIH3T3 lysates; format: binding; conditions: NIH3T3 lysates incubated with S100P and S100P antibody
# T1 construct: RAGE was present in the S100P complexes from wild-type NIH3T3 cells incubated with exogenous S100P and S100P antibody; endogenous in cells; host or cells: NIH3T3 cell lysates for RAGE; E. coli TOP10 for the added His-S100P
# T1 sequence (Q62151 23-402): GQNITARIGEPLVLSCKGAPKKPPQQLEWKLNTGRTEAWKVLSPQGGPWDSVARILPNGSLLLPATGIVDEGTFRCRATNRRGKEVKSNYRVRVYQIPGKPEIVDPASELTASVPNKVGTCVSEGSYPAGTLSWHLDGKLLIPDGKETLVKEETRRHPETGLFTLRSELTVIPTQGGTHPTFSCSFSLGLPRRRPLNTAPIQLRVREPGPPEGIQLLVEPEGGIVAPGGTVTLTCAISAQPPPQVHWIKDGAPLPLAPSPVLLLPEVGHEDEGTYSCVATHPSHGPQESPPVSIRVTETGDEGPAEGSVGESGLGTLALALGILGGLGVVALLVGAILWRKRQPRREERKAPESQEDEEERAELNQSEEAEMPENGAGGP
# Description: For co-immunoprecipitation experiments, cell lysates were incubated in the absence or presence of S100P (1 μg) at 4° C. overnight. S100P was immunoprecipitated using mouse monoclonal antibody against S100P (Transduction Laboratories, San Diego, Calif.), for 6 hours at 4° C. and IgG immobolized beads (Pierce, Rockford, Ill.). Antibody associated proteins were electrophoresed on 10% polyacrylamide gel and transferred to nitrocellulose membrane. Transferred membrane was blocked by 5% milk solution overnight at 4° C. RAGE was detected as described.
# Chain of RAGE (endogenous, of NIH3T3 cells) (Q62151 23-402 limits assumed): as the sequence (Q62151 23-402) above
molecule,measurement,setting,value
purified His-S100P protein (His-tagged fusion protein of full length S100P made in E. coli) (from UniProt P25815 1-95) (ligand),"NIH3T3 cell proliferation, fold over control",[1],2 fold
same,survival of NIH3T3 cells after 5 FU,[1],1 nM
"O=c1[nH]cc(F)c(=O)[nH]1 [5-FU, 5-fluorouracil, reference compound]",killing of NIH3T3 cells,"NIH3T3 cells [2]; wild-type vs S100P expressing NIH3T3 cells, 5-FU 150 ug/ml (FIG. 5B)",efficiently kill wild-type but not S100P expressing NIH3T3 cells
CN(C)CC/C=C1/c2ccccc2COc2ccc(CC(=O)O)cc21 [olopatadine],interaction with S100 proteins,S100 proteins,interact with S100 proteins
CC(C)c1ccc2oc3nc(N)c(C(=O)O)cc3c(=O)c2c1 [amlexanox],interaction with S100 proteins,S100 proteins,interact with S100 proteins
synthetic peptide derived from amphoterin (RAGE antagonist peptide),inhibition of S100P activation of Erk,[1],50 nM
same,"inhibition of S100P activation of Erk, complete",[1],500 nM
"S100P: purified S100P generated as a His-tagged fusion protein in bacteria (protein, UniProt P25815 1-95, looked up, His tag, purified S100P generated as a His-tagged fusion protein in bacteria) Protein S100-P: MTELETAMGMIIDVFSRYSGSEGSTQTLTKGELKVLMEKELPGFLQSGKDKDAVDKLLKDLDANGDAQVDFSEFIVFVAAITSACHKYFEKAGLK",concentration giving maximal effect on cell proliferation,NIH3T3 cells [3]; NIH3T3 cells,100 nM
same,concentration at which effects on cell proliferation were noted,"NIH3T3 cells [3]; purified S100P added to NIH3T3 cells, dose-response",10 pM
same,time after which significant increase in cell proliferation was noted,NIH3T3 cells [3]; time-course,48 h
same,maximal effect on cell proliferation,NIH3T3 cells [3]; with 100 nM S100P,~2 fold over control
same,concentration at which protection from the effects of 5 FU was noted,"NIH3T3 cells [2]; S100P added to culture medium, NIH3T3",1 nM
same,time after which significant protection from anoikis was noted,NIH3T3 cells [2]; time-course,36 h
same,concentration at which effects on Erk phosphorylation were noted,Erk 1 & 2; dose-response,10 pM
same,concentration giving maximal effects on Erk phosphorylation,Erk 1 & 2; dose-response,100 nM
same,duration Erk phosphorylation remained significantly elevated,"Erk 1 & 2; purified S100P, NIH3T3",at least 2 hours
same,time of maximal increase of Erk phosphorylation,"Erk 1 & 2; purified S100P, NIH3T3",30 min
same,time to significant Erk 1 & 2 phosphorylation,"Erk 1 & 2; purified S100P, NIH3T3",≤ 10 min
same,duration increase in NF-κB DNA binding was maintained,"NF-κB; S100P, NIH3T3, EMSA",at least 2 hours
same,time to initiation of increase in NF-κB DNA binding,"NF-κB; S100P, NIH3T3, EMSA",≤ 10 min
same,concentration at which significant effects on NF-κB activation were noted,NF-κB; concentration dependence,0.1 nM
same,concentration giving maximal effect on NF-κB activation,NF-κB; concentration dependence,100 nM
same,interaction with RAGE (co-immuno-precipitation),RAGE,can interact directly with RAGE
